Measurements taken from the nanobody polyreactivity screen of Harvey et al. (2022).

test: yeast display, Sf9 membrane polyspecificity reagent, FACS + sequencing; frameworks hold sequencing errors
How it was run: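 Polyreactivity labels are assigned by the sorting gate from which each nanobody was recovered. The gates were low and high (top ~1%), set on anti-HA fluorescence for expression and streptavidin fluorescence for reagent binding. Before sorting, galactose-induced (36–48 hours) yeast display cells were stained for 1 hour at 4 °C with 10% biotinylated, detergent-solubilized Sf9 membrane reagent.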

Sequence	polyreactivity (PSR sort gate)
QVQLVESGGGLVQAGGTLRLSCAASGGTFKVNAMGWYRQAPGKERELVASITGRGGSTYYADSVKGRFTISRDNAKNTVYLQMNSLKPEDTAVYYCAAAWRLGHLRFNSWGQGTQVTVSS	high polyreactivity
QVQLVESGGGLVQAGGTLRLSCAASGIIFGYYAMGCYRQAPGKERELVAAINSGGSTYYADSVKGRFTISRDNAKNTVYLQMNSLKPEDTAVYYCKAKLYSKYWGQGTQVTVSS	high polyreactivity
QVQLVESGGGLVQAGGTLRLSCAASGITFYVYAMGWYRQAPGKEREFVAAINGRGGSTYYADSVKGRFTISRDNAKNTVYLQMNSLKPEDTAVFYCAAESLAIYYKYPPYDYWGQGTQVTVSS	high polyreactivity
QVQLVESGGGLVQAGGTLRLSCAASGPMFTLNAMGWYRQAPGKERELVAAINRGGSTYYADSVRGRFTISRDNAKNTVYLQMNSLKPEDTAVYYCAARRRQGGHDYWGQGTQVTVSS	high polyreactivity
QVQLVESGGGLVQAGGTLRLSCAASGRIFRVYAMGWYRQAPGKERELVATITRGGSTYADSVKGRFTISRDNAKNTVYLQMNSLKPEDTAVYYCAADLVLGYRYDYWGQVTQVTVSS	high polyreactivity
QVQLVESGGGLVQAGGTLRLSCAASGRTFGTYAMGWYRQEPGKERELVAAIRSNAGSTYYADSVKGRFTISRDNAKNTVYLQMNSLKPEDTAVYYCAKSYPSSRRYNFWGQGTQVTVSS	high polyreactivity
QVQLVESGGGLVQAGGTLRLSCAASGRTFGWYAMGWYRQAPGKERELVASITQRGGRTYYADSVKGRFTISRDNAKNTVYLQMNSLKPEDTAVYYCAAKTSPGMYYWGQGTQVTVSS	high polyreactivity
QVQLVESGGGLVQAGGTLRLSCAASGRTFNGNAMGWYRQAPGKERELVAAISGGSTSYADSVKGRFTISRDNAKNTVYLQMNSLKPEDTAVYYCAATYIRRTIFRYNSWGQGTQVTVSS	low polyreactivity
QVQLVESGGGLVQAGGTLRLSCAASGRTLRRYAIGWYRQAPGTERELVADNSWRGTSTNYADSVKGRFTISRDNAKNTVYLQMNSLKPEDTAVYYCAAKQTYTRLHYLGPSVWDNYDYWGQGTQVTVSS	high polyreactivity
QVQLVESGGGLVQAGGTLRLSCAASGSIVVGNTMGWYRQAPGKERELVAAITWSGGRTYYADSVKGRFTISRDIAKNTVYLQMNSLKPEDTAVYYCAAPTYLRRGMDTYNLGYGYWGQGTQVTVSS	high polyreactivity
QVQLVESGGGLVQAGGTLRLSCAASGSIWRYAMGWYRKAPGKERELVATIARRGGSTYYADSVKGRFTISRDNAKNTVYLLMNSLKPEDPAVYYCAAAESASSFRFDYWGQGTQVTVSS	high polyreactivity
QVQLVESGGGLVQAGGTLRLSCAASGSSYFYYAMGWYRQAPRKERELVADITSGGSTDYADSVKGRFTISRDNAKNTVYVQINSVNPEDSAVYYCAADDFSGYGTEYDYWGQGTQVTVSS	low polyreactivity
QVQLVESGGGLVQAGGTLRLSCAASGSTFGYNAMGWYRQAPGKERELVARITSSGGSTYYADSVKGRFTISRDNAKNTVYLQMNSLKPEDTAVYYCAAGYPYRAVYRYYYWGQGTQVTVSS	high polyreactivity
QVQLVESGGGLVQAGGTLRLSCAASGSTFPGYAIGSNRQAPGKERELVAAISVSGDRTYYADSVKGRFTISRDNAKNTVYLQMNSLKPEDTAVYYCAVRTRYRSYGVWVGNYSWGQGTQVTVSS	high polyreactivity
QVQLVESGGGLVQAGGTLRLSCAASGSTFYENTMGWYRQARGKERELVAAISFRGGSTYYADSVKGRFTISRDNAKKTVYLQMNSLKPEDTAVYYCAKDYYTLRLYDYWGQGTLVTVSS	low polyreactivity
QVQLVESGGGLVQAGGTLRLSCAASGSTIKPYAMGWNRQAPGKERELVAVIRWRGGRTYYADSVKGRFTISRDNAKNTAYFQINSQNPADTAVYYCAAGGSQAAGGYGYYGYDYWGQGTQVTVSA	low polyreactivity
QVQLVESGGGLVQAGGTLRLSCAASGYIFAWYAMGWYRQAPGKERELVATITWRGGSTYYADSVKGRFTISRDNAKNTVYLQMNSLKPEDTAVYYCNKDVTPLHYDSWGQGTQVTVSS	high polyreactivity
QVQLVESGGGLVQAGGTLRLSCAASGYTLTINVMGWYRPAPGKERELVAAITSSGASTNYADSVKGRFTISRDNAKNTVYLQMNSLKPEDTAVYYCNVGNEHQSDFVVPFDYNHWGQGTQVTVSS	low polyreactivity
QVQLVESGGGLVQAGGTLRLSCAPSGHIVFYYTKGWYRQAPGKERELVAGITIGGSTNYADSVKGRFTISRDNAKNTVYLQMNSLKPEDTAVYYCNVVKYVYIYSYWEYYYWGQGTQVTGSS	low polyreactivity
QVQLVESGGGLVQAGGTLRLSCDASGRTFHVYAMGWYRHAPGKERELVAAISGRTGSTYYADSVKGRFTISRDIAKNTVYLQMNSLKPEDTAVYYCAKGYSYGWWGGFGYWGQGTQVTVSS	high polyreactivity
QVQLVESGGGLVQAGGTLRLSCPASGSNFNRYAMGSYRKAPGKERELVAAISSTGSTFYADSVKWRFTISRDNAKITVYLQMNSLTPEDTAVYYCNADATHDWLRVDTYEYWGQGTQVTVSS	low polyreactivity

Sequence	polyreactivity (PSR sort gate)
QVQLVESGGGLVQAGGTLRLSCSASGGTIAIYAMGWYRHARGKEREMVARISYSSGSTHYADSVKGRFTISRDNAKNTVFLQMNSLKPEDSAVYYCAATAYWFYAKDYYWGQGSQVTVSS	high polyreactivity
QVQLVESGGGLVQAGGTLRLSCSASGRTFFSYAMGWYRQAQGKERELVAAITYSGGRTYYADSVKGRFTISRDNAKNTVYVQMNSLKRDDTAVYYCAGTHYREKMDYWGQGTQLTVSS	low polyreactivity
QVQLVESGGGLVQAGGTLRLSGAASGSTFFFNAMGWYRQAPGKEWELVAAITGSGGSTYYADSVQGRFTISRDNAKNTVYLQMNSLKPEDTAVYYCAAYGAKPSEYYWGQGTQVTVSS	low polyreactivity
QVQLVESGGGLVQAGGTLRLSGAASGSTFVYNAMGWNIQAPGKERDLVAVITRRGGSPYYADSVNGRFTISRDNEKKTVYLQMNILNPEDTAVYYCAAGYRRTQTTDYHYWGHGTQVTVSS	high polyreactivity
QVQLVESGGGLVQAGRSLRISCAASGRIFYYNDMGRYRQAPGKERELVAAITWTDDGTYYADSVKARFTISRDNAKNTVYLQMNSLKPEVTAVYYCAAESFYGFEYWGQGTQLTVSS	low polyreactivity
QVQLVESGGGLVQAGRSLRLICAASGSTFVIYDMVWYRQAPGKERELVAAISYSGGSTYYADSVKGRFKISRDNAKNTVYLEMNSLKPEDTAVYYCNAGVLVLLYSYLQSELEYWGQGTQVTVSS	low polyreactivity
QVQLVESGGGLVQAGRSLRLSCAASGFIILGNAMGWYRQAPGKERELVAAISSGGSTYADSVKGRFTISRDNAKNTVYLQMNSLKPEDTAVYYCAVDRAFRAQNYHEYDYWGQGTQVTVSS	low polyreactivity
QVQLVESGGGLVQAGRSLRLSCAASGITLVRNAMGWSRQAPGKEMELVAAISSNGDNTYYADSVKGRFTISSDNAKNTVYLQMNSLKPEDTAVYYCAVGGPVIWWGPKYDYWGQGTQVTVSS	high polyreactivity
QVQLVESGGGLVQAGRSLRLSCAASGLIFSWYAMGWYRQAPGKEREFVAAIRWSGSGTYYADSVKGRFTISRDNAKNTVYLQMNSLKPEDTAVYYCAVRWSSGSRRYNYWGQGTQVTVSS	high polyreactivity
QVQLVESGGGLVQAGRSLRLSCAASGRIFYRKAMGWYRQAPGKERELVAGITSGGSTNYADSVKGRFTISRDNEKNTFDLQMNSVKPEDTAVYYCAKASPAKFYSEAGYDYWGQGTQVTVSS	low polyreactivity
QVQLVESGGGLVQAGRSLRLSCAASGRSFKYYPMGWYRQAPGKERELVARISRSSGNTYYADSVKGRFTISRDTAKNTVYLQMNSLKAEDTAVYFCATVPHYNGFNYWGQGTQVTVSS	high polyreactivity
QVQLVESGGGLVQAGRSLRLSCAASGRTFPYYVMGWYRQAPGKDRELVAAINSGGRTNYADSVKGRFTISRDNAKNTVYLQLNSLKPEDTAVYYCTKRGHPARLGYYYWGQGTLVTVSS	low polyreactivity
QVQLVESGGGLVQAGRSLRLSCAASGSIFSRNAMGWYRQAPGKERELVAAITGSASSTYYADSVKGRFTISRDNAKNTVYLQMNSLKPEDTAVYYCNAARVYLSECGQGTQVTVSS	high polyreactivity
QVQLVESGGGLVQAGRSLRLSCAASGSILGTYAMGWYRQAPGKERELVAAISSSGRTSYADSVKGRFTISRDNAKNTVYLQMNSLKPEDTAVYYCNASNYIVLINDPDAAPWLYDYWGQGTQVTVSS	low polyreactivity
QVQLVESGGGLVQAGRSLRLSCAASGSTFSVNAMGWYRQAPGKERELVAAIPSGGNTYADSVKGRFTISRDNAKNTVYLQMNSLKPEDTAVYYCAVDNRDLFFYPGGFDYWGQGTQVTVSS	low polyreactivity
QVQLVESGGGLVQAGRSLRLSCAASGSTFVHNAMGWYRQAPGKERELVAAISRSGGRTYYADSVKGRFTISRDNAKNTVYLQMNSLKPEDTAVYDCAAGLHWTRYPSAHYLFEYWGQGTQVTVSS	high polyreactivity
QVQLVESGGGLVQAGRSLRLSCAASGSTFVNYAMGWYRQAPGKERELVAAISRSGGRTYYADSVKGRFTISRDNAKNTVYLQMNSLKPEDTAVYYCAPLLLSPEYGYWGQGTQVTVSS	high polyreactivity
QVQLVESGGGLVQAGRSLRLSCAASGSTFWEYAMGWYRQAPGNEREFVAAISTSGGSTYYADSLKGRFTISRDTAKYTVYLQMNSLKPEDTAVYYCAAGRVRRRVWYNYWGQGTQVTVSS	high polyreactivity
QVQLVESGGGLVQAGRSLRLSCAASGYTFSPNDMGWYRQAPGKERELVATITYGGGTTYYADSVKGRFTISRDNAKNTVYLQMNSLKPEDTAVYYCAKDVPLYRAHDGYDYWGQGTQVTVSS	low polyreactivity
QVQLVESGGGLVQAGRSLRLSCAASGYTFYVYAMGWYRQAPGKERELVASISSGGITYYADSVKGRFTISRDNAKNTVYLQMNILKPEDTAVYYCAADWQWTYDYWGQGTQVTVSS	low polyreactivity
